Data: paper doi:10.1101/2022.12.06.519383

Biological target: ZIKV sE (strain PF13) (Zika virus, strain PF13)
Assay: SEC-MALS

Work on “ZIKV sE (strain PF13) (domain or fragment)” yielded a stoichiometry N of 2.
